The results in this text go back to patent US20210252159A1, “CONJUGATES OF CARTILAGE-HOMING PEPTIDES” (priority 2018, published 2021).

Each structure is given as a SMILES string. Positions of bridges follow the written chain, without caps; N, C: chain ends. Residues, ends and D or L forms follow the SMILES beside them. *: point of attachment. X1 = CC(CCC(C)C(=O)*)C(=O)OCC(=O)[C@@]1(O)[C@H](C)C[C@H]2[C@@H]3CCC4=CC(=O)C=C[C@]4(C)[C@@]3(F)[C@@H](O)C[C@@]21C

By half-life is commonly meant how long it takes for the measured level to halve.

Data set [1] is described as follows: Hydrolysis assay of peptide-drug conjugates in human plasma (free Dex by LC/MS). Type of data set: in vitro ADME. As to conditions: 37° C., release of free Dex, time points to 32 hr, read-out: Half-life (hours) as measured in the hydrolysis experiments (converted). As to the method: In order to determine hydrolysis rates, conjugates can be diluted in PBS, rat plasma, or human plasma and incubated at 37 degrees. Samples can be taken at designated time-points (e.g., 1, 2, 3, 5, 10, 15, 20, 25, 30, 45, 60, or 90 minutes and/or hours after administration). Internal standards such as triamcinolone acetonide (TAA) can be added as an internal standard, and then active agent/TAA can be extracted using acetonitrile, for example. The samples can be dried down, reconstituted, and analyzed by LC/MS. Data can be normalized using Dex AUC/TAA AUC. Percent hydrolysis can be calculated using the average ratio for active agent AUC/TAA AUC at a time point of maximal drug release. A general method can include using a lyophilized, purified peptide-drug conjugates reconstituted in DMSO following production to generate stock solution at 20 mg/mL. Each conjugate stock can be brought to 0.25 mg/mL in each hydrolysis condition (1×DPBS, human plasma and rat plasma) in triplicate and rocked at 37° C. To quantitate free active agent, 100 μl of the hydrolyzed conjugate solution can be transferred into 1 mL acetonitrile at 4° C. at which time all plasma proteins and intact conjugates can precipitate. This can be performed repeatedly to generate a series of time points (0 hr, 0.5 hr, 1 hr, 2 hr, 4 hr, 6 hr, 8 hr, 24 hr, 32 hr). The acetonitrile solution can be spun at 17,000 g for 5 minutes, and the supernatant removed and added to a 96 well block. The pellet can then be resuspended in 500 μl acetonitrile and re-pelleted as before. The supernatant can be removed and added to the same well in the block. Samples can be prepared for analysis by drying under a nitrogen stream followed by reconstitution in 110 μl 45:55 ACN:Citrate 10 mM pH 5.5. […] Quantification of free active agent (or drug) can be achieved through integration of active agent peaks of the TIC. […]
To quantitate free dexamethasone (Dex), 100 μl of the hydrolyzed conjugate solution was transferred into 1 mL acetonitrile at 4° C. at which time all plasma proteins and intact conjugates precipitated. […]

Data set [2] concerns CIA rats.

As for `CC[C@H](C)[C@@H]1NC(=O)[C@@H]2CSSC[C@H](NC(=O)[C@H](CCCNC(=N)N)NC(=O)[C@@H](NC(=O)[C@H](CC(N)=O)NC(=O)[C@@H](NC(=O)[C@@H]3CCCN3C(=O)[C@@H](NC(=O)CNC(=O)[C@H](CO)NC(=O)CNC(=O)C(C)CCC(C)C(=O)OCC(=O)[C@@]3(O)[C@H](C)C[C@H]4[C@@H]5CCC6=CC(=O)C=C[C@]6(C)[C@@]5(F)[C@@H](O)C[C@@]43C)C(C)C)[C@@H](C)CC)C(C)C)C(=O)N[C@@H](CCCNC(=N)N)C(=O)NCC(=O)N[C@@H](CO)C(=O)N[C@@H](CCCNC(=N)N)C(=O)N[C@@H](CC(=O)O)C(=O)N[C@H]3CSSC[C@H](NC(=O)[C@H](CCCNC(=N)N)NC(=O)[C@H](CO)NC(=O)[C@H](CC(N)=O)NC1=O)C(=O)N[C@@H](Cc1c[nH]cn1)C(=O)N[C@H](C(=O)N[C@H](C(=O)N1CCC[C@H]1C(=O)O)[C@@H](C)O)CSSC[C@H](NC(=O)[C@@H]1CCCN1C(=O)[C@H](CC(=O)O)NC(=O)[C@H](CC(C)C)NC3=O)C(=O)N[C@@H](CCCNC(=N)N)C(=O)N[C@@H](CCCNC(=N)N)C(=O)N[C@@H](C)C(=O)NCC(=O)N[C@@H](CCSC)C(=O)N[C@@H](CCCNC(=N)N)C(=O)N[C@@H](Cc1ccccc1)C(=O)NCC(=O)N[C@@H](CCCNC(=N)N)C(=O)N2` (some centres unmarked) [Compound 27, peptide(SEQ ID NO: 105)-[dimethyladipic acid]-Dex] (X1-GSGVPINVRCRGSRDCLDPCRRAGMRFGRCINSRCHCTP-OH; disulfide 10-30, 16-35, 20-37 (inferred); C-terminus assumed), the half-life at 0.25 mg/mL in data set [1] was 22.4 h. Moreover, the “ankle swelling over time as compared to vehicle” value in data set [2] (0.2 mg/kg and 0.5 mg/kg Dex equivalents IV days 11 and 12) is “reduction in ankle swelling”. Besides, in data set [2] (0.2 mg/kg and 0.5 mg/kg dose), the spleen weight result is recorded as “reduction”, the thymus weight result is “reduction” and the total body weight entry was “reduction”. In addition, in data set [2] (0.2 mg/kg dose), the “change in median ankle diameter between day 11 and day 13 as compared to vehicle” value is given as “statistically significant reduction in ankle diameter”; the “difference from Dex in change in ankle diameter” value is “no statistically significant difference”. Moreover, the mortality and tolerability entry in data set [2] (1 mg/kg Dex equivalents IV, some rats) is on record as “died overnight”.
